Biological target: the molecule itself
Assay: crystal structure; TetR co-crystallised with RNA aptamer K1 (2.7 Å) or K2 (2.9 Å); complex purified by gel filtration in 20 mM Tris-HCl pH 8.0, 150 mM NaCl, 5 mM MgCl2; sitting-drop vapor diffusion at 20°C

B1: TetR type BD' (TetR (B1–B187:D188–D208; C68S, C88N, C121T and C144S)) (natural protein)
chain: MSRLDKSKVINSALELLNEVGIEGLTTRKLAQKLGVEQPTLYWHVKNKRALLDALAIEMLDRHHTHFSPLEGESWQDFLRNNAKSFRNALLSHRDGAKVHLGTRPTEKQYETLENQLAFLTQQGFSLENALYALSAVGHFTLGSVLEDQEHQVAKEERETPTTDSMPPLLRQAIELFDHQGAEPAFLHGLESLIRGFEVQLTALLQIV
notes: TetR class B, residues 1-187 of the cysteine-free chimeric TetR type BD'; TetR class D, residues 188-208 of the chimeric TetR type BD'; homodimer; also called Tet repressor; wild-type TetR; source: purified
B1 was tested, and the “stoichiometry N” value was 2.

From paper PMC7102968, “The complex formed between a synthetic RNA aptamer and the transcription repressor TetR is a structural and functional twin of the operator DNA–TetR regulator complex” (Nucleic Acids Research, 2020)
